Data published in publication PMC7689490 (Nature Communications, 2020).
[ ]: non-standard residue; d: D form. Fluos = fluorescein label; Ahx = NCCCCCC(=O)O

Biological target: T1, macrophage migration-inhibitory factor (MIF), recombinant human, unlabelled (human, UniProt P14174 1-115)
T1 construct: human MIF; For some biophysical methods a 90-95% pure preparation was used; also called WT-MIF; human MIF
T1 sequence (looked up): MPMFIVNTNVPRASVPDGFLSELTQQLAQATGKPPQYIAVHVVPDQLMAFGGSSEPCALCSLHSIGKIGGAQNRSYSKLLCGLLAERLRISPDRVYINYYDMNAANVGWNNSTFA
Assay: other fluorescence titration; Fluos-labelled CXCR4 ectodomain peptide at 5 nM titrated with unlabelled MIF, MIF(10xAla), CXCL12 or MIF peptide fragments; 10 mM sodium phosphate, pH 7.4, 1% HFIP; emission at 522 nm; apparent KD, 1/1 binding model
Conditions: both partners purified

B1: Fluos-[A^102, A^103, A^104, A^107, A^189, A^190, A^195]-msR4M-L1 (designed binder)
chain: Fluos-DAVANAAAGNALCK[Ahx][Ado]DRYICDRAAPNDLAV-NH2
modifications: cysteine pairing not given here
notes: The functional assays used the unlabelled peptide; also called Fluos-msR4M-L1(7xAla); source: synthetic peptide (Fmoc SPPS on Rink amide MBHA resin, RP-HPLC purified)
For B1, which Kd is on record?
Its Kd is over 1000 nM.
